Data published in the supplement of paper PMC10065799, “High-throughput profiling of sequence recognition by tyrosine kinases and SH2 domains using bacterial peptide display” (eLife, 2023).

Assays:
[1] = target: Grb2 SH2 (UniProt P62993); test: SH2 binding enrichment of the phosphorylated peptide, bacterial display (enrichment ratio); higher = better substrate or ligand; peptides without Tyr show the background
[2] = target: SHP2-C SH2; test: as above
[3] = target: c-Src SH2; test: as above
[4] = system: Fer (mouse); test: phosphorylation enrichment, bacterial display (enrichment ratio); higher = better substrate or ligand; peptides without Tyr show the background
[5] = target: EPHB1 (UniProt P54762); test: as above
EPHB1, sequence (P54762 whole entry, looked up): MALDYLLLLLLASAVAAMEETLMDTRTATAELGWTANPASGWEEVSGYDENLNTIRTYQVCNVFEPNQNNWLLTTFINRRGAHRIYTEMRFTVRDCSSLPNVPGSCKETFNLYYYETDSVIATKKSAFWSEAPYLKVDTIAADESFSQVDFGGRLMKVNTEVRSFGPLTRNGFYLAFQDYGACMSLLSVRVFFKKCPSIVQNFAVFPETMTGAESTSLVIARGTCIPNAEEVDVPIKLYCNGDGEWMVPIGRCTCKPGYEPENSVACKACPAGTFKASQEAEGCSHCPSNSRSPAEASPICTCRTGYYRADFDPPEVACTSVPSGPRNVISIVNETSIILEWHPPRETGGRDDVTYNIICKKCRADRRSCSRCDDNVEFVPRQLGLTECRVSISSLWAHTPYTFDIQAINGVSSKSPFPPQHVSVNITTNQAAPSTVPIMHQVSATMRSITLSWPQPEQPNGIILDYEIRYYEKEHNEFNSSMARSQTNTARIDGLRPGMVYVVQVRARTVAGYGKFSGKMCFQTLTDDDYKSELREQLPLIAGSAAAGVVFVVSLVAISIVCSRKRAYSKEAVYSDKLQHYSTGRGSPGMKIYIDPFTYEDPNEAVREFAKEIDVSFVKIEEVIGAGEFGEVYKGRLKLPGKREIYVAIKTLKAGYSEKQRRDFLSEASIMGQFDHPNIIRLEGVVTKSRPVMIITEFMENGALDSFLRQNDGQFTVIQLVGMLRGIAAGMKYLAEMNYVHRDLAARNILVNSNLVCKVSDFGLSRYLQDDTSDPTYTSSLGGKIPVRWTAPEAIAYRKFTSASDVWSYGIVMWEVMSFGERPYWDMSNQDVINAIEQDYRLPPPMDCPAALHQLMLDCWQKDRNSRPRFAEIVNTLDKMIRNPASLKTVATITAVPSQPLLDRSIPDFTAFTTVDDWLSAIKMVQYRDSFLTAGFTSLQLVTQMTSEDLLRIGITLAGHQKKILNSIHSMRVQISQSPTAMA

[6] = target: FGFR3 (UniProt P22607); test: as above
[7] = target: Jak2 (UniProt O60674); test: as above
Jak2, sequence (O60674 whole entry, looked up): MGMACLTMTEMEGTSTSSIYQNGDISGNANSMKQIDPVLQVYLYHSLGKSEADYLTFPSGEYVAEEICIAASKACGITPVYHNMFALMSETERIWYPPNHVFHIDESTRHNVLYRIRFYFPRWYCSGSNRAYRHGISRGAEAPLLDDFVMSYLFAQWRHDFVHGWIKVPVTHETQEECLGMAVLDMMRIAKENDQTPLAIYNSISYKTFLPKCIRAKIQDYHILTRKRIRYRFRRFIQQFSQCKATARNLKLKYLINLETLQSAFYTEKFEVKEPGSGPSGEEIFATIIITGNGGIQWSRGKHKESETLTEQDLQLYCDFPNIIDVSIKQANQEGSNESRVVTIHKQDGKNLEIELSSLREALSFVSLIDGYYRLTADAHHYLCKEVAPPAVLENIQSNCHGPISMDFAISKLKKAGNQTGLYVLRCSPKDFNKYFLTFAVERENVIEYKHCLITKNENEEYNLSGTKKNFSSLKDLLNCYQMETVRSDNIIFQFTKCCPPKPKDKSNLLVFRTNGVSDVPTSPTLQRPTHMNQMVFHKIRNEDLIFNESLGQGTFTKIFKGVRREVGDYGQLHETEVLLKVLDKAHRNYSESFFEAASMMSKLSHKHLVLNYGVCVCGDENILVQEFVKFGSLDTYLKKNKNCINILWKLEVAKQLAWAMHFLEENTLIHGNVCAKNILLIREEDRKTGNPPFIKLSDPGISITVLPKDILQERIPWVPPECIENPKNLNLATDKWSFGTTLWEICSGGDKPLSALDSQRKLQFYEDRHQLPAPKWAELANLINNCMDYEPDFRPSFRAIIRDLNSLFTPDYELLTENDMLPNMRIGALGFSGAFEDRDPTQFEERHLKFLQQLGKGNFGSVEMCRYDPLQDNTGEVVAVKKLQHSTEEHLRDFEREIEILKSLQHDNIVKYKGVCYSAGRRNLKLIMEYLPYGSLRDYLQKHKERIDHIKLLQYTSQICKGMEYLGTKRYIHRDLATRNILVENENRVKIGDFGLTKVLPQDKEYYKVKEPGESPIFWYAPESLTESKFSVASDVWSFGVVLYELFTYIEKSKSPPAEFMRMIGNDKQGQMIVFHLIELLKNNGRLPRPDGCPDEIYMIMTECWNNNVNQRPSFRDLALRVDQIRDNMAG

[8] = target: Fes (UniProt P07332); test: as above
[9] = system: c-Src; test: as above
[10] = system: c-Abl (mouse); test: as above
[11] = target: Fyn (UniProt P06241); test: as above
Fyn, sequence (P06241 whole entry, looked up): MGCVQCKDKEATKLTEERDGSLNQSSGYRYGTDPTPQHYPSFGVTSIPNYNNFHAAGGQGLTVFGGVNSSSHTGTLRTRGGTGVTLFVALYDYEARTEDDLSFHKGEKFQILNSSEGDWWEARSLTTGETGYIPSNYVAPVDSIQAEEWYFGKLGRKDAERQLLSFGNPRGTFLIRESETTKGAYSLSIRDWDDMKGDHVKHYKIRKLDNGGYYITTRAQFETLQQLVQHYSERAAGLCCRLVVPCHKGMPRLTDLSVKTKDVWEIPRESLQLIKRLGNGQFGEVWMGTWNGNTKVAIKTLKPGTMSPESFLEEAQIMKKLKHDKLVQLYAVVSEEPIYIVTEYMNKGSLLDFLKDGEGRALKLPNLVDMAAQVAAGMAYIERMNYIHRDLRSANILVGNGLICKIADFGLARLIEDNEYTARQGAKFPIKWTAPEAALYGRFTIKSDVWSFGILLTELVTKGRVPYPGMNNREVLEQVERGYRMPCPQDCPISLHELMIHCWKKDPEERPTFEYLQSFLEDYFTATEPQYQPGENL

[12] = target: FGFR1 (UniProt P11362); test: as above
[13] = target: EPHB2 (UniProt P29323); test: as above
EPHB2, sequence (P29323 whole entry, looked up): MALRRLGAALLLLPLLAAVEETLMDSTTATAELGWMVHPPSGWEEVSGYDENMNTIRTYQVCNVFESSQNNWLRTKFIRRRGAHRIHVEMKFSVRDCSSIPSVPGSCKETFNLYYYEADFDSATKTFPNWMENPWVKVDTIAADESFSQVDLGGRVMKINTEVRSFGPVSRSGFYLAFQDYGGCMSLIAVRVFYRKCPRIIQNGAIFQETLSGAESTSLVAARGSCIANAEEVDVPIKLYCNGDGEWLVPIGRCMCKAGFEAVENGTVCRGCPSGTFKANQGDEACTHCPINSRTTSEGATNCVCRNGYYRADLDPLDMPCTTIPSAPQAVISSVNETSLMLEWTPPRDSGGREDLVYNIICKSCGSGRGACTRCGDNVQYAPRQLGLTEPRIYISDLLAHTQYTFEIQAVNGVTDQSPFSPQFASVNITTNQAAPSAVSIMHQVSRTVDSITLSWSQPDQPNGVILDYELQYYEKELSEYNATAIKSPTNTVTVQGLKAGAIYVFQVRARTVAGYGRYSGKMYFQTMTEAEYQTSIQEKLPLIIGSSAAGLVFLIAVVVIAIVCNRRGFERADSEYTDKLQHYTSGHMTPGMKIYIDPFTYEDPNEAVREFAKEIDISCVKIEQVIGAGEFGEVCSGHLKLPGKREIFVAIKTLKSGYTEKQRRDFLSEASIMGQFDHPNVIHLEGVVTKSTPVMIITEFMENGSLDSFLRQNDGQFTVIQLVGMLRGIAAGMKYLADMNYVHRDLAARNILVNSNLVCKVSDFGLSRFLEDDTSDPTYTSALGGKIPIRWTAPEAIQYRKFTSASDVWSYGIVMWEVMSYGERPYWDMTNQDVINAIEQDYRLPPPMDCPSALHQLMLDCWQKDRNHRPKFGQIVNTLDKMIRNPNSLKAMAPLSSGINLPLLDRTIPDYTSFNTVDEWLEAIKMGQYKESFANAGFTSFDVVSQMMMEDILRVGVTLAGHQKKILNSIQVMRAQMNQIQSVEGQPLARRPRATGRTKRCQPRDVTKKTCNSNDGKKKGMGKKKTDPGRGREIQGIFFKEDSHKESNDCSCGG

[14] = system: AncSZ; test: as above
[15] = target: MERTK (UniProt Q12866); test: as above
MERTK, sequence (Q12866 whole entry, looked up): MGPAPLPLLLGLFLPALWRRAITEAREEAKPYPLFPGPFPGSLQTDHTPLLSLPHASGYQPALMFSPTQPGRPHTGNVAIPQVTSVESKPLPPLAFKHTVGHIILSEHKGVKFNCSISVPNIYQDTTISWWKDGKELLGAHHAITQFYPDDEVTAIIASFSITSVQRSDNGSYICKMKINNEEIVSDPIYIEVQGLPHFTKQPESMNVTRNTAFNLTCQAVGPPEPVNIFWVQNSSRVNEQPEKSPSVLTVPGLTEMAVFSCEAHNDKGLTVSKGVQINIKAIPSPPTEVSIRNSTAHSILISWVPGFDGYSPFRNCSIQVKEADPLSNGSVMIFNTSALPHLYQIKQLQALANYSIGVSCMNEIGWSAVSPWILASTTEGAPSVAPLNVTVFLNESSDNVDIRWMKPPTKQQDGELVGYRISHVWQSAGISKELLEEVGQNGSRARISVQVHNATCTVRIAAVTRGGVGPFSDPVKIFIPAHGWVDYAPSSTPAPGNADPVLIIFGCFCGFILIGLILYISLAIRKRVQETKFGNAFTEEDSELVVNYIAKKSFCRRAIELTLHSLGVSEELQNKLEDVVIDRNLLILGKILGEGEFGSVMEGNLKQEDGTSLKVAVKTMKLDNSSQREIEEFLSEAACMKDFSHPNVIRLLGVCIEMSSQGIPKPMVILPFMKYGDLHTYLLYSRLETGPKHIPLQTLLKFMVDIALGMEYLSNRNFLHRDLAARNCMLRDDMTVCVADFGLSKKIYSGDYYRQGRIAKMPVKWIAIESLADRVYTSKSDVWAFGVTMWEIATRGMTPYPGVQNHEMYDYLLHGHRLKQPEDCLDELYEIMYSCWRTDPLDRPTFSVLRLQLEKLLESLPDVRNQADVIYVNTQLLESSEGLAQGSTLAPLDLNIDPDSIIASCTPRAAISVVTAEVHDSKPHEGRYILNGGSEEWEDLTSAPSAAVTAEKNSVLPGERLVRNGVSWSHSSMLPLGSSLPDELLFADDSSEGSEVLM

[16] = target: Hck (UniProt P08631); test: as above
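Wherever SH2 binding enrichment of the phosphorylated peptide, bacterial display is given: peptide library displayed on the E. coli surface as eCPX fusions, selected cells deep-sequenced, score is each peptide's frequency after selection divided by its frequency in the input.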
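Wherever phosphorylation enrichment, bacterial display is given: 11-residue human phosphosite peptides and single-mutation variants displayed on the E. coli surface, counted by deep sequencing, each peptide's frequency after selection divided by its frequency in the unselected input library; frequency after pTyr selection over input frequency; kinase dosed for 20-30% of maximal phosphorylation in three min.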

Grb2 SH2, sequence (P62993 whole entry, looked up): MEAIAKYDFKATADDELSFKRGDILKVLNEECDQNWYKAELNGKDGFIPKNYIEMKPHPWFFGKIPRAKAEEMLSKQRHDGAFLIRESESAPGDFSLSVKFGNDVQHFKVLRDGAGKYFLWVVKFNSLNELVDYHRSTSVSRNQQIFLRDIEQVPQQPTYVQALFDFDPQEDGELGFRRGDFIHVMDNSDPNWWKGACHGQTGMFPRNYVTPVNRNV

Sequence	SH2 binding enrichment [1]	SH2 binding enrichment [2]	SH2 binding enrichment [3]	phosphorylation enrichment [4]	phosphorylation enrichment [5]	phosphorylation enrichment [6]	phosphorylation enrichment [7]	phosphorylation enrichment [8]	phosphorylation enrichment [9]	phosphorylation enrichment [10]	phosphorylation enrichment [11]	phosphorylation enrichment [12]	phosphorylation enrichment [13]	phosphorylation enrichment [14]	phosphorylation enrichment [15]	phosphorylation enrichment [16]
RGLQVYHKRNA [LRP2_Y2010_R2012K]	0.943	0.539	0.567	0.517	0.45	0.642	0.654	0.985	0.497	0.561	0.496	0.433	0.468	0.545	0.496	0.59
MGGSVYFSYPD [HIKESHI_Y55]	0.978	1.94	0.843	0.401	0.728	1.41	1.09	1.07	3.42	0.752	3.16	1.49	0.815	1.02	1.36	1.65
GKGGSYSKAES [HLA-E_Y341_W346S]	0.73	0.499	0.389	0.307	0.3	0.394	0.386	0.514	0.423	0.462	0.375	0.391	0.295	0.485	0.447	0.359
EACRSYSHVVL [CHST6_Y168]	0.958	2.2	2.24	0.824	0.454	0.701	0.602	0.711	0.538	0.881	0.611	0.533	0.498	0.808	0.463	0.548
IPGRYYETGSI [PAX2_Y73_L69P]	0.777	0.743	1.67	0.331	0.451	0.498	0.573	0.646	0.437	0.616	0.454	0.492	0.595	0.505	0.405	0.428
SHSMRYFDTSV [HLA-C_Y31_A35S]	0.932	0.885	0.367	0.37	0.482	0.463	0.543	0.576	0.432	0.455	0.432	0.47	0.448	0.581	0.386	0.393
LSALDYKIFFF [WDPCP_Y210_YF]	0.84	1.54	0.557	0.672	0.588	0.833	0.991	1.05	0.717	0.725	0.418	0.753	0.71	1.5	0.332	0.585
SHSMRYFSTAV [HLA-C_Y31_D33S]	0.752	0.64	0.423	0.435	0.431	0.569	0.625	0.763	0.441	0.578	0.459	0.657	0.452	0.719	0.425	0.452
KGNMYYENSYA [EGFR_Y113_R108K]	10.2	1.05	4.96	1.23	0.629	0.72	0.481	0.77	0.473	0.474	0.515	0.878	0.593	0.667	1.17	0.561
